The target in this assay is T1, 人血清白蛋白 (human, UniProt P02768 25-609).
T1 construct: also called HSA; human serum albumin
Kind of assay: SPR (Biacore T200), HSA amine-coupled to CM5 chip, NB22 as analyte. (In general: SPR reads the build-up and loss of mass on a sensor chip optically.)

B1: 单域抗体NB22 (VHH)
VHH: QVQLQESGGGSVQAGGSLRLSCAASAYTYSTTCMAWFRQAPGKEREKVATITTGGTYPYYADSVKGRFTISQDNAKNTVYLQMNSLKPEDTAMYYCAADASWGCRLSGSWSTVYNYWGQGTQVTVSS
notes: Camel (Bactrian) VHH from a phage display library; expressed in E. coli periplasm with a C-terminal 6x His tag and nickel-purified; also called 抗人血清白蛋白单域抗体
For B1, binding was characterised by a dissociation constant (Kd) of 0.683 nM.

As usually defined, the Kd is the concentration at which binding is half-saturated. Read a high Kd as a looser complex.

The record behind these values is patent CN111138537A (REYOUNG (SUZHOU) BIOPHARMACEUTICAL CO LTD, dated 2020).
